Measured values published in article PMC4324353 (Journal of molecular biology, 2014).

Target: latrunculin B bound actin (A. castellani actin monomer) (A. castellani)
Assay: fluorescence polarisation

| Binder | stoichiometry N |
| --- | --- |
| SD3C (Spir SD and SC reversed around Linker 3) (domain or fragment) PREQLMESIRKGKELKQISDRQLGPPRMCEPSKKDAHAMILEFIRSRPPLKKA | 1 actin monomer per construct |
| SC[gs]D (Spir SC and SD with Linker 3 replaced by five Gly-Ser repeats) (domain or fragment) KKDAHAMILEFIRSRPPLKKAGSGSGSGSGSPREQLMESIRKGKELKQITPPE | 1 actin monomer per construct |
